Drawing on article PMC8880170, this text covers stoichiometry N for 2 substances.

The target in experiment [1] is SARS-CoV-2 nsp15 K290A (SARS-CoV-2). Description: SEC; […] (20 mM Tris-HCl pH 8, 150 mM NaCl); […]. For orientation: In gel filtration, larger molecules generally elute earlier.
Experiment [2] deals with SARS-CoV-2 nsp15 N164A (SARS-CoV-2). Description: SEC; […] (20 mM Tris-HCl pH 8, 150 mM NaCl); […].

On to SARS-CoV-2 nsp15 K290A (enzyme), for which the stoichiometry N in experiment [1] is 6.
Consider SARS-CoV-2 nsp15 N164A (enzyme), for which the stoichiometry N in experiment [2] stood at 6.

Broadly, the stoichiometry N is a count of units in the complex or per binding partner.
